# From patent publication US20050008615A1
# pKd: −log10 of the molar value.
# Target: human IL-18 binding protein (human) (UniProt O95998)
# Experiment: SPR (BIAcore)
# Sequence of native human IL-18 (SEQ ID NO:1) (Q14116 37-193): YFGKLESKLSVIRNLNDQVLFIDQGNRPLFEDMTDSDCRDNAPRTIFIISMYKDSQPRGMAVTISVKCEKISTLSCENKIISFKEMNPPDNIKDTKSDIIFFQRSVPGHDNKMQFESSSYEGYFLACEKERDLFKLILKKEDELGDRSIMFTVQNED
row,Substance,pKd
1,"human IL-18 C38S, C68D, D157C (SEQ ID NO:8) (from UniProt Q14116 37-192) (ligand)",9.87
2,"human IL-18 C38S, C68D, D157C (SEQ ID NO:8) monopegylated at C157 with 20K PEG (from UniProt Q14116 37-192) (ligand)",8.26
3,"human IL-18 C38S, C68D, D157C (SEQ ID NO:8) monopegylated at C157 with 30K PEG (from UniProt Q14116 37-192) (ligand)",8.31
4,"human IL-18 C38S, C68D, D157C (SEQ ID NO:8) monopegylated at C157 with 40K PEG (from UniProt Q14116 37-192) (ligand)",7.63
5,"human IL-18 C38S, C68D, L144C (SEQ ID NO:7) (from UniProt Q14116 37-193) (ligand)",10.00
6,"human IL-18 C38S, C68D, L144C (SEQ ID NO:7) monopegylated at C144 with 20K PEG (from UniProt Q14116 37-193) (ligand)",8.94
7,"human IL-18 C38S, C68D, L144C (SEQ ID NO:7) monopegylated at C144 with 30K PEG (from UniProt Q14116 37-193) (ligand)",8.82
8,"human IL-18 C38S, C68D, L144C (SEQ ID NO:7) monopegylated at C144 with 40K PEG (from UniProt Q14116 37-193) (ligand)",8.33
9,"human IL-18 C38S, C68S, D157C (SEQ ID NO:10) (from UniProt Q14116 37-192) (ligand)",9.79
10,"human IL-18 C38S, C68S, D157C (SEQ ID NO:10) monopegylated at C157 with 20K PEG (from UniProt Q14116 37-192) (ligand)",8.90
11,"human IL-18 C38S, C68S, D157C (SEQ ID NO:10) monopegylated at C157 with 30K PEG (from UniProt Q14116 37-192) (ligand)",8.89
12,"human IL-18 C38S, C68S, L144C (SEQ ID NO:9) (from UniProt Q14116 37-193) (ligand)",9.81
13,"human IL-18 C38S, C68S, L144C (SEQ ID NO:9) monopegylated at C144 with 20K PEG (from UniProt Q14116 37-193) (ligand)",8.81
14,"human IL-18 C38S, C68S, L144C (SEQ ID NO:9) monopegylated at C144 with 30K PEG (from UniProt Q14116 37-193) (ligand)",8.82
15,native human IL-18 (SEQ ID NO:1) (from UniProt Q14116 37-193) (ligand),9.87

# Target: human IL-18 binding protein (human) (UniProt O95998)
# Experiment: IGEN electrochemiluminescence immunoassay of the IL-18:IL-18BP complex; 125 ng/ml of each
row,Substance,ECL units
1,"C144 20K PEG (human IL-18 L144C substitution mutant pegylated at C144 with 20K PEG, Table 7) (ligand)",154000 ECL units
2,"C144 non-PEG (human IL-18 substitution mutant with L144C, Table 7) (ligand)",561000 ECL units
3,"C157 20K PEG (human IL-18 D157C substitution mutant pegylated at C157 with 20K PEG, Table 7) (ligand)",63500 ECL units
4,"C157 non-PEG (human IL-18 substitution mutant with D157C, Table 7) (ligand)",377000 ECL units
5,human IL-18 C38S (SEQ ID NO:4) (from UniProt Q14116 37-193) (ligand),746000 ECL units
6,human IL-18 C38S (SEQ ID NO:4) monopegylated at C68 with 20K PEG (from UniProt Q14116 37-193) (ligand),49100 ECL units

# Target: human IL-18 binding protein (human) (UniProt O95998)
# Experiment: IGEN electrochemiluminescence immunoassay of the IL-18:IL-18BP complex (ruthenium 16D10 anti-IL-18 mAb, biotinylated mAb 36 anti-IL-18BP); 125 ng/ml of each
row,Substance,ECL units
1,native human IL-18 (SEQ ID NO:1) (from UniProt Q14116 37-193) (ligand),1.1e+06 ECL units
